Test system: Escherichia coli TOP10
Assay: shrunken log2 fold change of peptide-encoding DNA abundance (4.5 h post-induction vs induction); higher = less antimicrobial activity (less host growth inhibition)
Details: time post-induction: 4.5 h; library: site-saturation at positions 5, 18, 19, 20
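Note: peptides expressed intracellularly from a pBAD plasmid library in pooled LB shake-flask culture, induced with 0.3% L-arabinose, DNA abundance read by NGS, three biological replicates, DESeq2 with apeglm shrinkage.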

Row | Sequence | shrunken log2 fold change
1 | RRIRERPPRLPRPRPRPERYPRP | -0.162
2 | RRIRNRPPRLPRPRPRPIPDPRP | -0.0956
3 | RRIRYRPPRLPRPRPRPKPKPRP | 0.394
4 | RRIRLRPPRLPRPRPRPSFIPRP | -0.578
5 | RRIRCRPPRLPRPRPRPNRRPRP | -0.0599
6 | RRIRKRPPRLPRPRPRPAHPPRP | 0.711
7 | RRIRWRPPRLPRPRPRPNKTPRP | 0.0629
8 | RRIRNRPPRLPRPRPRPRGGPRP | 0.474
9 | RRIRFRPPRLPRPRPRPKVHPRP | 0.146
10 | RRIRTRPPRLPRPRPRPHDCPRP | -0.00088
11 | RRIRMRPPRLPRPRPRPQLYPRP | 0.284
12 | RRIRERPPRLPRPRPRPEMYPRP | -0.00136
13 | RRIRTRPPRLPRPRPRPDPGPRP | 0.0486
14 | RRIRHRPPRLPRPRPRPWTPPRP | -0.502
15 | RRIRIRPPRLPRPRPRPDAQPRP | -0.0523
16 | RRIRKRPPRLPRPRPRPMLFPRP | 0.315
17 | RRIRQRPPRLPRPRPRPNCKPRP | -0.555
18 | RRIRPRPPRLPRPRPRPHCGPRP | -0.168
19 | RRIRKRPPRLPRPRPRPIQFPRP | 0.0779
20 | RRIRTRPPRLPRPRPRPYAQPRP | -0.495
21 | RRIRWRPPRLPRPRPRPRFIPRP | -0.00733
22 | RRIRKRPPRLPRPRPRPEDWPRP | 2.01
23 | RRIRERPPRLPRPRPRPKLVPRP | 0.0398
24 | RRIRQRPPRLPRPRPRPADQPRP | 0.012
25 | RRIRVRPPRLPRPRPRPAVYPRP | -0.161

Row | Sequence | shrunken log2 fold change
26 | RRIRWRPPRLPRPRPRPRTCPRP | -0.045
27 | RRIRHRPPRLPRPRPRPYRKPRP | -1.23
28 | RRIRHRPPRLPRPRPRPIPYPRP | -0.3
29 | RRIRRRPPRLPRPRPRPHDHPRP | 3.24
30 | RRIRERPPRLPRPRPRPEDHPRP | -0.111
31 | RRIRCRPPRLPRPRPRPFMPPRP | -0.402
32 | RRIRRRPPRLPRPRPRPTAVPRP | 0.606
33 | RRIRSRPPRLPRPRPRPEYRPRP | 0.2
34 | RRIRLRPPRLPRPRPRPKENPRP | 0.00493
35 | RRIRDRPPRLPRPRPRPWQIPRP | 0.0319
36 | RRIRRRPPRLPRPRPRPDLAPRP | 0.197
37 | RRIRWRPPRLPRPRPRPSSSPRP | 0.00035
38 | RRIRVRPPRLPRPRPRPLHQPRP | 0.0791
39 | RRIRERPPRLPRPRPRPNASPRP | -0.0996
40 | RRIRARPPRLPRPRPRPYQTPRP | 0.00502
41 | RRIRERPPRLPRPRPRPNSLPRP | 0.0427
42 | RRIRHRPPRLPRPRPRPENIPRP | -0.0173
43 | RRIRYRPPRLPRPRPRPYQYPRP | -1.05
44 | RRIRLRPPRLPRPRPRPIHNPRP | -1.05
45 | RRIRVRPPRLPRPRPRPKEWPRP | 0.146
46 | RRIRWRPPRLPRPRPRPTVGPRP | 0.468
47 | RRIRHRPPRLPRPRPRPTLQPRP | -0.0103
48 | RRIRRRPPRLPRPRPRPFIWPRP | 0.0601
49 | RRIRYRPPRLPRPRPRPKWDPRP | -0.46
50 | RRIRCRPPRLPRPRPRPSQMPRP | -0.278

Row | Sequence | shrunken log2 fold change
51 | RRIRNRPPRLPRPRPRPRHQPRP | -0.038
52 | RRIRARPPRLPRPRPRPGCMPRP | 0.727
53 | RRIRERPPRLPRPRPRPQVKPRP | -0.2
54 | RRIRERPPRLPRPRPRPQHMPRP | -0.735
55 | RRIRCRPPRLPRPRPRPIPDPRP | 0.106
56 | RRIRHRPPRLPRPRPRPPGWPRP | 0.424
57 | RRIRKRPPRLPRPRPRPDFTPRP | -0.206
58 | RRIRCRPPRLPRPRPRPYNRPRP | -0.0425
59 | RRIRKRPPRLPRPRPRPVCLPRP | 0.0948
60 | RRIRQRPPRLPRPRPRPIIDPRP | -0.199
61 | RRIRTRPPRLPRPRPRPYIVPRP | -1.04
62 | RRIRQRPPRLPRPRPRPKFRPRP | 0.0034
63 | RRIRQRPPRLPRPRPRPRPGPRP | 0.286
64 | RRIRCRPPRLPRPRPRPRKIPRP | 0.245
65 | RRIRERPPRLPRPRPRPRFSPRP | -0.0175
66 | RRIRHRPPRLPRPRPRPSTVPRP | 0.00256
67 | RRIRPRPPRLPRPRPRPWLAPRP | 0.343
68 | RRIRWRPPRLPRPRPRPYYSPRP | -0.181
69 | RRIRKRPPRLPRPRPRPYHDPRP | 0.035
70 | RRIRERPPRLPRPRPRPPKKPRP | 0.0812
71 | RRIRWRPPRLPRPRPRPMMAPRP | 0.452
72 | RRIRPRPPRLPRPRPRPNRAPRP | 0.371
73 | RRIRPRPPRLPRPRPRPWENPRP | -0.0456
74 | RRIRFRPPRLPRPRPRPGDYPRP | -0.406
75 | RRIRLRPPRLPRPRPRPEAQPRP | 0.375

Row | Sequence | shrunken log2 fold change
76 | RRIRNRPPRLPRPRPRPFEPPRP | -0.181
77 | RRIRCRPPRLPRPRPRPITVPRP | -0.222
78 | RRIRYRPPRLPRPRPRPDPNPRP | -0.57
79 | RRIRARPPRLPRPRPRPCHNPRP | -0.161
80 | RRIRPRPPRLPRPRPRPQFTPRP | -0.285
81 | RRIRYRPPRLPRPRPRPANGPRP | -0.6
82 | RRIRCRPPRLPRPRPRPWYMPRP | -0.838
83 | RRIRQRPPRLPRPRPRPGEAPRP | 0.271
84 | RRIRQRPPRLPRPRPRPVNKPRP | 0.112
85 | RRIRKRPPRLPRPRPRPLVKPRP | 0.195
86 | RRIRDRPPRLPRPRPRPWFMPRP | 0.0254
87 | RRIRMRPPRLPRPRPRPFGDPRP | 0.0178
88 | RRIRIRPPRLPRPRPRPTMWPRP | -0.0599
89 | RRIRNRPPRLPRPRPRPICFPRP | -0.217
90 | RRIRPRPPRLPRPRPRPYHTPRP | -1.66
91 | RRIRDRPPRLPRPRPRPSPLPRP | -0.126
92 | RRIRPRPPRLPRPRPRPCREPRP | -0.075
93 | RRIRYRPPRLPRPRPRPYFQPRP | -1.6
94 | RRIRQRPPRLPRPRPRPSLPPRP | 0.289
95 | RRIRWRPPRLPRPRPRPMSVPRP | 0.0691
96 | RRIRMRPPRLPRPRPRPPNAPRP | 1.11
97 | RRIRVRPPRLPRPRPRPLPLPRP | 0.0752
98 | RRIRERPPRLPRPRPRPSLTPRP | -0.699
99 | RRIRARPPRLPRPRPRPWAHPRP | 0.0535
100 | RRIRCRPPRLPRPRPRPVQTPRP | -0.0555

Row | Sequence | shrunken log2 fold change
101 | RRIRCRPPRLPRPRPRPESVPRP | 0.025
102 | RRIRSRPPRLPRPRPRPPHKPRP | 0.173
103 | RRIRLRPPRLPRPRPRPNIEPRP | -0.304
104 | RRIRDRPPRLPRPRPRPDPVPRP | 0.203
105 | RRIRQRPPRLPRPRPRPWRNPRP | -0.00208
106 | RRIRDRPPRLPRPRPRPRDFPRP | 0.106
107 | RRIRFRPPRLPRPRPRPFGTPRP | -0.587
108 | RRIRNRPPRLPRPRPRPDQMPRP | 0.0898
109 | RRIRQRPPRLPRPRPRPTVLPRP | -0.0201
110 | RRIRNRPPRLPRPRPRPDLFPRP | -0.00884
111 | RRIRARPPRLPRPRPRPRIQPRP | 0.505
112 | RRIRARPPRLPRPRPRPNRSPRP | -0.229
113 | RRIRMRPPRLPRPRPRPCTMPRP | -0.218
114 | RRIRQRPPRLPRPRPRPGLLPRP | -0.0475
115 | RRIRKRPPRLPRPRPRPSIKPRP | -0.004
116 | RRIRVRPPRLPRPRPRPFLTPRP | -0.0925
117 | RRIRHRPPRLPRPRPRPGDKPRP | -0.0257
118 | RRIRPRPPRLPRPRPRPICNPRP | -0.367
119 | RRIRRRPPRLPRPRPRPRRAPRP | 0.655
120 | RRIRGRPPRLPRPRPRPNPEPRP | 0.511
121 | RRIRFRPPRLPRPRPRPHLIPRP | -0.415
122 | RRIRARPPRLPRPRPRPWQSPRP | 0.183
123 | RRIRGRPPRLPRPRPRPADCPRP | 0.349
124 | RRIRDRPPRLPRPRPRPQHNPRP | -0.554
125 | RRIRLRPPRLPRPRPRPAQEPRP | -0.023

Source: the supplement of paper PMC9112550, “Optimization of the antimicrobial peptide Bac7 by deep mutational scanning” (BMC Biology, 2022)
